B1: MGC27345 (parent)
chain: KYMPHLCQDSSGEVSCQCQLHPPR

Variants of: B1
Assay: protein stability index of a GFP-peptide fusion (GPS, HEK-293T) (PSI 1-6); higher = more stable
Details: c terminus: a fixed tail appended
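Also: lentivirally expressed fusions sorted by FACS into six bins by GFP to DsRed ratio, PSI derived from sequencing read proportions per bin multiplied by bin number.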

Protein stability index of substitutions, site by site:
K1: L 2.48 | N 1.73 | E 2.06 | T 1.9 | H 2.13 | Y 1.92 | V 2.43 | A 1.82 | Q 2 | P 2.16 | R 2.24 | D 2.56 | G 2.25 | C 3.03 | S 2.65 | M 3.73
Q8: Y 1.7 | L 1.77 | H 2.03 | T 3.04 | F 2.38 | M 2.83 | P 2.15 | R 2.83 | I 2.38 | G 2.42 | E 1.97 | C 2.53
P22: N 3.16 | M 2.51 | H 3.14 | D 4.1 | L 2.73 | W 2.05 | S 2.55 | I 2.03 | R 2.62 | K 2.43 | G 3.29 | V 2.17
D9: W 1.52 | A 2.73 | H 2.38 | E 3.09 | M 2.15 | P 1.42 | L 2.18 | C 2.97 | N 1.98 | K 2.43 | S 1.82 | R 1.89 | Y 1.67 | F 2.47 | I 1.51 | G 2.56
S15: K 2.8 | T 1.41 | Y 2.22 | W 1.02 | D 3.99 | F 1.67 | C 2.28 | N 2.62 | R 1.63 | L 1.72 | H 1.64 | E 3.32 | Q 1.96
C16: H 3.05 | E 4.02 | M 2.9 | G 4.1 | K 3.58 | Q 3.99 | F 2.16 | I 1.93 | D 3.88 | R 3.1 | A 3.38 | P 3.31 | S 2.03 | V 2.85 | Y 3.13 | W 2.38
R24: W 2.89 | A 3.79 | K 3.26 | F 3.39 | T 3.99 | M 3.31 | V 3.23 | Q 4.05 | C 3.86 | D 4.59 | E 4.59 | H 4.04
H5: Q 2.6 | I 1.49 | C 2.92 | D 1.66 | N 1.64 | E 2.3 | M 2.15 | P 2.27 | G 1.45 | F 1.34 | R 2.57 | V 2.22 | T 2.21 | Y 1.98 | W 3.69 | A 1.8
P4: E 1.79 | T 1.98 | M 2.54 | F 1.75 | A 2.26 | S 1.71 | C 3.23 | D 2.18 | K 1.58 | Y 2.15 | H 1.69 | W 1.67 | Q 1.99 | R 1.9
V14: P 2.45 | K 2.64 | C 2.94 | T 2.87 | Q 2.67 | A 3.06 | I 2.48 | N 2.46 | W 2.42 | E 3.31 | F 1.94 | D 2.25 | S 2.88 | M 2.23 | L 1.97
H21: I 2.75 | R 1.69 | Y 2.06 | A 3.18 | E 3.34 | F 1.63 | T 3.51 | S 2.86 | K 2.7 | D 2.6
E13: S 2.26 | T 2.22 | L 2.07 | F 1.71 | Q 1.74 | Y 1.54 | P 2.31 | K 2.21 | N 1.75 | A 2.3 | R 2.44 | C 2.14 | V 1.78 | D 2.57 | H 2.05 | I 1.99
G12: L 2.08 | H 2.69 | I 1.47 | R 1.69 | M 1.88 | F 1.34 | P 1.96 | N 1.67 | Q 2.8 | D 2.52 | E 2.1 | T 1.87 | K 1.59 | C 2.38
P23: G 3.38 | N 2.85 | T 2.02 | D 3.71 | L 2.38 | I 2.24 | W 2.34 | A 2.34 | C 3.96 | E 3.48 | Q 2.29 | F 2.32 | Y 2.07 | K 2.35 | M 2.2 | V 2.87
L20: D 2.73 | H 3.1 | N 2.56 | I 2.79 | F 2.13 | E 3.1 | S 2.49 | A 2.37 | T 2.12 | W 1.82 | M 2.73 | Y 2.05 | C 2.44
C7: F 2.21 | D 2.11 | M 2.11 | H 1.85 | I 1.79 | W 1.75 | G 3.13 | E 1.77 | T 1.53 | K 1.9 | P 1.77 | N 1.27
M3: W 1.99 | P 2.84 | V 2.32 | N 2.55 | F 1.99 | K 1.96 | E 2.25 | L 2.67 | G 2.1 | Y 2.22 | T 1.96 | C 2.94 | I 2.01
Q19: S 2.5 | T 2.36 | W 2.48 | G 2.81 | K 2.07 | V 1.96 | Y 2.71 | C 2.07 | P 3.84 | E 3.08 | D 2.25 | H 1.52 | A 2.45 | I 2.15
C18: P 3.55 | M 2.54 | K 3.44 | E 3.62 | S 3.79 | D 3.65 | V 3.48 | Y 1.69 | L 3.35 | N 4.32 | R 3 | I 3.34
Q17: D 2.83 | S 1.33 | R 2.35 | H 1.74 | T 1.81 | L 2.17 | P 2.21 | W 2.6 | F 2.21 | I 1.76 | Y 1.76 | V 2.44 | N 1.47 | K 3.52
S11: P 1.72 | H 2.16 | M 2.12 | G 3.17 | T 2.1 | N 2.55 | C 2.5 | I 1.71 | F 1.58 | L 2.04 | Q 1.63 | A 2.53 | K 2.28 | E 2.42
L6: N 1.79 | C 2.39 | Y 1.96 | W 1.53 | K 2.14 | D 2.64 | V 2.65 | M 1.79 | A 1.73 | Q 2.47 | P 1.57 | I 2.23 | R 2.05 | G 2.66
S10: F 2.65 | H 2.91 | C 2.73 | E 2.57 | L 1.57 | Y 4.19 | K 2.02 | Q 2.26 | M 2.39 | P 2.05 | T 1.97 | V 1.56 | D 2.94 | W 1.6 | N 2.08 | G 2.08
Y2: G 2.87 | P 1.79 | N 3.13 | H 2.51 | F 1.86 | W 2.64 | S 2.33 | T 2.3 | R 2.16 | D 2.4 | A 1.97 | C 2.44 | I 3.1 | E 1.66

From the supplement of paper PMC10567573
